The data set has as its system nsp1β;PCBP2 (PRRSV (SD01-08)?;human). Description: EMSA. To be noted: EMSA: 10 mM Hepes pH 7.6, 150 mM KCl, 2 mM MgCl2, 1 mM DTT, 0.5 mM ATP, 5% glycerol, 100 µg/ml porcine tRNA, RNase inhibitor; 10 nM RNA; 30°C 10 min (room …). For orientation: In EMSA bound probe runs differently from free probe, usually more slowly.

One may read the Kd as the constant that tells how readily two partners part at equilibrium. A high value points to weaker binding. Substance PRRSV -2/-1 PRF RNA wt (58 nt) returned a Kd of 130 nM.

The values above are taken from publication PMC4937337.
